Experimental data as given in article PMC7374754, “Selection of mutant µplasmin for amyloid-β cleavage in vivo” (Scientific Reports, 2020).

Target: human µPlm P642A (human)
Experiment: cell-based or functional assay

- IC50 of α2-AP inhibition of amidolytic activity, fold relative to the wild-type: 2 fold of wild type
B1: human alpha-2 antiplasmin (α2-AP), mature (natural protein, UniProt P08697-1 40-491, looked up)
chain: NQEQVSPLTLLKLGNQEPGGQTALKSPPGVCSRDPTPEQTHRLARAMMAFTADLFSLVAQTSTCPNLILSPLSVALALSHLALGAQNHTLQRLQQVLHAGSGPCLPHLLSRLCQDLGPGAFRLAARMYLQKGFPIKEDFLEQSEQLFGAKPVSLTGKQEDDLANINQWVKEATEGKIQEFLSGLPEDTVLLLLNAIHFQGFWRNKFDPSLTQRDSFHLDEQFTVPVEMMQARTYPLRWFLLEQPEIQVAHFPFKNNMSFVVLVPTHFEWNVSQVLANLSWDTLHPPLVWERPTKVRLPKLYLKHQMDLVATLSQLGLQELFQAPDLRGISEQSLVVSGVQHQSTLELSEVGVEAAAATSIAMSRMSLSSFSVNRPFLFFIFEDTTGLPLFVGSVRNPNPSAPRELKEQQDSPGNKDFLQSLKGFPRGDKLFGPDLKLVPPMEEDYPQFGSPK
